Measurements reported in PMC10042835, “Phytochrome B photobodies are comprised of phytochrome B and its primary and secondary interacting proteins” (Nature Communications, 2023).

Target: T1, SBP-fused phyB (SBP-phyB), recombinant full-length phyB (Arabidopsis thaliana, UniProt P14713 1-1172, made in phycocyanobilin-producing LMG194 (chromophore); Pfr or Pr form set by a red or far-red light pulse)
T1 construct: phytochrome B (phyB), Arabidopsis thaliana, full length; pBAD-derived vector; the Pfr and Pr forms are told apart by the assay; also called phytochrome B; Pfr form; source: phycocyanobilin-producing E. coli LMG194, purified (Ni-NTA, Streptavidin sepharose)
T1 sequence (looked up): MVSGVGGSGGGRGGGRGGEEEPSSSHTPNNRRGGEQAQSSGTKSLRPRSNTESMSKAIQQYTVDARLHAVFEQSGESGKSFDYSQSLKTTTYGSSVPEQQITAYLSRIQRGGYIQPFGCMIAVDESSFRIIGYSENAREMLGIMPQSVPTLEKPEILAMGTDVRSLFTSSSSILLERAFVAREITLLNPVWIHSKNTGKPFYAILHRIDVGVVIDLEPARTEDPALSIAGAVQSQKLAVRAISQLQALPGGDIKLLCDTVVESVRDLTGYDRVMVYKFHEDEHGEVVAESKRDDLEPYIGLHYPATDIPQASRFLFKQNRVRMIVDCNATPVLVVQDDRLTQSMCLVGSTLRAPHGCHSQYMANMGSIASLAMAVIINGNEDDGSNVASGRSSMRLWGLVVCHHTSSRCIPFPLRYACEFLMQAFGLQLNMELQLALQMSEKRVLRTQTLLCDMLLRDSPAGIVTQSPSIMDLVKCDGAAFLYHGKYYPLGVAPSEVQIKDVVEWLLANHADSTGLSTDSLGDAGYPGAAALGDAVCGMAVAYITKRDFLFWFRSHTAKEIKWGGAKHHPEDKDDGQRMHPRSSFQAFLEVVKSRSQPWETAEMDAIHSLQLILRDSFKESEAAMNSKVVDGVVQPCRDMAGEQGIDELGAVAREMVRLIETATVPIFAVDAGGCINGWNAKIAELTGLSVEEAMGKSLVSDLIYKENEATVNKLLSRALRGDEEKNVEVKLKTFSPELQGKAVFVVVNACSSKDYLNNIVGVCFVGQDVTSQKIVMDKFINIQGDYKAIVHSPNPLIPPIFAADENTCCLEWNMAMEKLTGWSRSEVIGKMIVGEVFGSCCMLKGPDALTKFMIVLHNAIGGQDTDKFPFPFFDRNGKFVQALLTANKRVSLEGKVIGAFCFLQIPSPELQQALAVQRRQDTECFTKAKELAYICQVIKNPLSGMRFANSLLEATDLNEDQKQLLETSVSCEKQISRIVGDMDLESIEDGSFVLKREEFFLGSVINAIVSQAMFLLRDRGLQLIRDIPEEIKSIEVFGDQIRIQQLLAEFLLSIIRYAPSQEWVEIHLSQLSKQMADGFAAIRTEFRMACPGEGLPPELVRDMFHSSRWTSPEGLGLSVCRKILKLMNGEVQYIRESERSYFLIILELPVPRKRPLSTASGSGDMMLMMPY
Experiment: pull-down; GST fusions incubated with SBP-phyB in the Pfr form (red light pulse 25 μmol/m2/s, 10 min, before the incubation), glutathione resin; 25 mM HEPES, 150 mM KCl, 1 mM DTT, pH 7.40; green safety light
Details: both partners purified

B1: GST-fused PIF4 (GST-PIF4) (natural protein, Arabidopsis thaliana, UniProt Q8W2F3 1-430, looked up)
chain: MEHQGWSFEENYSLSTNRRSIRPQDELVELLWRDGQVVLQSQTHREQTQTQKQDHHEEALRSSTFLEDQETVSWIQYPPDEDPFEPDDFSSHFFSTMDPLQRPTSETVKPKSSPEPPQVMVKPKACPDPPPQVMPPPKFRLTNSSSGIRETEMEQYSVTTVGPSHCGSNPSQNDLDVSMSHDRSKNIEEKLNPNASSSSGGSSGCSFGKDIKEMASGRCITTDRKRKRINHTDESVSLSDAIGNKSNQRSGSNRRSRAAEVHNLSERRRRDRINERMKALQELIPHCSKTDKASILDEAIDYLKSLQLQLQVMWMGSGMAAAAASAPMMFPGVQPQQFIRQIQSPVQLPRFPVMDQSAIQNNPGLVCQNPVQNQIISDRFARYIGGFPHMQAATQMQPMEMLRFSSPAGQQSQQPSSVPTKTTDGSRLDH
notes: source: E. coli BL21(DE3)-CodonPlus-RIL, purified (Ni-NTA, glutathione agarose); not shown: GST, N-terminal, kept
B1: binds.
